Publication PMC7216292, “A Multivalent ICAM-1 Binding Nanoparticle which Inhibits ICAM-1 and LFA-1 Interaction Represents a New Tool for the Investigation of Autoimmune-Mediated Dry Eye” (International Journal of Molecular Sciences, 2020)

Columns and labels:
[1] = target: mouse ICAM-1 (endogenous) (mouse (endogenous in bEnd.3, NOD LGACs)) (UniProt P13597)
[2] = target: mouse ICAM-1 (endogenous) (mouse (endogenous in bEnd.3, NOD LGACs)) (UniProt P13597); remark: listed apart in the source
[3] = target: the molecule itself; test: dynamic light scattering; 25 µM in PBS, pH 7.4, heated from 10 °C to 37 °C; assembly of monomers into nanoparticles above Tt1
[4] = target: mouse ICAM-1 (endogenous) (mouse (endogenous in bEnd.3, NOD LGACs), UniProt P13597 28-537); test: cell-based or functional assay
mouse ICAM-1 (endogenous), sequence (P13597 28-537): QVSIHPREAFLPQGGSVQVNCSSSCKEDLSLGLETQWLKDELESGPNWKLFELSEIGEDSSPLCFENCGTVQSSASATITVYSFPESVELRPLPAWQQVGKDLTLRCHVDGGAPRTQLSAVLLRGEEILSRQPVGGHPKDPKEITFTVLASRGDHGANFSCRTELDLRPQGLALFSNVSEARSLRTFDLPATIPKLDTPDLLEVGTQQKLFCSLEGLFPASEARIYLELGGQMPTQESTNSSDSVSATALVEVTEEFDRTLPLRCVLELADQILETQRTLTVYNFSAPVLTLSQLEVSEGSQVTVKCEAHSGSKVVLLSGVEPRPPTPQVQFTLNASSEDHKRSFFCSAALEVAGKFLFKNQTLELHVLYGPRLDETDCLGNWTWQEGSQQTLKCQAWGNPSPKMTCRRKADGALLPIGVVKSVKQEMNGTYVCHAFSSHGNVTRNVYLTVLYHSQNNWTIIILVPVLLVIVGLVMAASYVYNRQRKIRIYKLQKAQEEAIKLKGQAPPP

mouse ICAM-1 (endogenous) (mouse (endogenous in bEnd.3, NOD LGACs)), sequence (P13597 28-537): as above

proliferation of CFSE-labelled mouse CD4+ T-cells stimulated with MCC-loaded CH27 cells, in the presence of 100 µM SI (control), 5 days, percent of the untreated mixture [1] [%] | adhesion of fluorescently labelled splenocytes to TNF-α-induced bEnd.3 cells in the presence of 100 µM SI (negative control), percent of the control without ELP, plate reader [2] [%] | splenocyte binding to TNF-α-induced bEnd.3 cells in the presence of 100 µM SI (negative control), percent of the control without ELP, flow cytometry [2] [%] | IC50 of inhibition of adhesion of PMA-activated, CFSE-labelled mouse splenocytes (LFA-1) to TNF-α-induced bEnd.3 cells (ICAM-1), flow cytometry, IBP-SI 10-150 µM, 45 min, 37 °C [4] [µM] | IC50 of inhibition of adhesion of PMA-activated, CFSE-labelled mouse splenocytes (LFA-1) to TNF-α-induced bEnd.3 cells (ICAM-1), fluorescence plate reader, IBP-SI 10-150 µM, 45 min, 37 °C [4] [µM] | Molecule | binding result [3]
91.2 | 76.2 | 86.9 | – | – | lymphocyte function-associated antigen-1 (LFA-1) (from UniProt P24063 24-1162; P11835 24-771) (receptor) | –
– | – | – | – | – | SI (diblock elastin-like polypeptide S48I48) (other, N-terminal leader; also called parent SI; source: E. coli BLR(DE3), purified by ELP-mediated phase separation) MGVPGSGVPGSGVPGSGVPGSGVPGSGVPGSGVPGSGVPGSGVPGSGVPGSGVPGSGVPGSGVPGSGVPGSGVPGSGVPGSGVPGSGVPGSGVPGSGVPGSGVPGSGVPGSGVPGSGVPGSGVPGSGVPGSGVPGSGVPGSGVPGSGVPGSGVPGSGVPGSGVPGSGVPGSGVPGSGVPGSGVPGSGVPGSGVPGSGVPGSGVPGSGVPGSGVPGSGVPGSGVPGSGVPGSGVPGSGVPGSGVPGIGVPGIGVPGIGVPGIGVPGIGVPGIGVPGIGVPGIGVPGIGVPGIGVPGIGVPGIGVPGIGVPGIGVPGIGVPGIGVPGIGVPGIGVPGIGVPGIGVPGIGVPGIGVPGIGVPGIGVPGIGVPGIGVPGIGVPGIGVPGIGVPGIGVPGIGVPGIGVPGIGVPGIGVPGIGVPGIGVPGIGVPGIGVPGIGVPGIGVPGIGVPGIGVPGIGVPGIGVPGIGVPGIGVPGIGVPGIGY | binds
– | – | – | 62.7 | 81.2 | IBP-SI (ICAM-1 binding peptide fused to the diblock elastin-like polypeptide S48I48) (designed binder, N-terminal leader; residue between IBP and the ELP; Unlabelled form; also called IBI-SI; source: E. coli BLR(DE3), purified by ELP-mediated phase separation) MGFEGFSFLAFEDFVSSIGVPGSGVPGSGVPGSGVPGSGVPGSGVPGSGVPGSGVPGSGVPGSGVPGSGVPGSGVPGSGVPGSGVPGSGVPGSGVPGSGVPGSGVPGSGVPGSGVPGSGVPGSGVPGSGVPGSGVPGSGVPGSGVPGSGVPGSGVPGSGVPGSGVPGSGVPGSGVPGSGVPGSGVPGSGVPGSGVPGSGVPGSGVPGSGVPGSGVPGSGVPGSGVPGSGVPGSGVPGSGVPGSGVPGSGVPGSGVPGSGVPGIGVPGIGVPGIGVPGIGVPGIGVPGIGVPGIGVPGIGVPGIGVPGIGVPGIGVPGIGVPGIGVPGIGVPGIGVPGIGVPGIGVPGIGVPGIGVPGIGVPGIGVPGIGVPGIGVPGIGVPGIGVPGIGVPGIGVPGIGVPGIGVPGIGVPGIGVPGIGVPGIGVPGIGVPGIGVPGIGVPGIGVPGIGVPGIGVPGIGVPGIGVPGIGVPGIGVPGIGVPGIGVPGIGVPGIGVPGIGY | binds
